Measured values from paper PMC2248580 (BMC Structural Biology, 2007).

Molecular target: T1, human activated blood coagulation factor X (FXa) (human)
T1 construct: also called factor Xa; Stuart factor
Assay: SPR; […]; 37°C; HBS (10 mM Hepes, 150 mM NaCl, 5 mM CaCl2, 0.005% P20, pH 7.4); Langmuir fit; […]
Conditions: both partners purified

T1 sequence (P00742 whole entry): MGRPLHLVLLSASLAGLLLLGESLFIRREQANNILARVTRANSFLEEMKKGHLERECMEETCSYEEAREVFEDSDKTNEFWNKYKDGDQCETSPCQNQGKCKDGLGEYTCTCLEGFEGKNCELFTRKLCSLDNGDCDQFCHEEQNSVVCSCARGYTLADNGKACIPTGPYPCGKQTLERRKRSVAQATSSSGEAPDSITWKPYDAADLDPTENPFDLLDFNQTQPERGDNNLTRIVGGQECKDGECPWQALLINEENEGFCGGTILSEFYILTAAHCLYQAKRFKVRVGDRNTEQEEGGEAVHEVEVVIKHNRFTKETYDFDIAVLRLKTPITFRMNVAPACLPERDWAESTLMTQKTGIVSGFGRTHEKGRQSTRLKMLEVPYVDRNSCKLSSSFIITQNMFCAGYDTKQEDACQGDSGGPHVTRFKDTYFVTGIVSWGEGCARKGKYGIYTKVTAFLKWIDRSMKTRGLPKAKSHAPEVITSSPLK

B1: VRV-PLVIII, the PLA2 from Daboia russelli pulchella venom (enzyme)
chain: SLLEFGKMILEETGKLAIPSYSSYGCYCGWGGKGTPKDATDRCCFVHDCCYGNLPDCNPKSDRYKYKRVNGAIVCEKGTSCENRICECDKAAAICFRQNLNTYSKKYMLYPDFLCKGELKC
  Kd: 578 ± 15 nM
  koff: 0.026 s⁻¹
  kon: 45000 M⁻¹ s⁻¹

B2: Vbb, the PLA2 from Vipera berus berus venom (enzyme)
chain: NLFQFGNMINHMVGKHAVWSYLSYGCYCGWGGQGKPQDATDRCCFVHDCCYGRANGCDPKLSTYSYNFQNGNIVCGNKYGCLRHICECDRVAAICFQKNMNTYNKKYKNYSSSNCQENSDKC
modifications: γ-carboxyglutamic acid in the Gla domain (residues 1–39)
  Kd: 830 ± 15 nM
  koff: 0.025 s⁻¹
  kon: 30000 M⁻¹ s⁻¹
